Laboratory results taken from publication doi:10.1101/2023.06.05.543739.
Blank lines part the entries; values can stand above or below the substance they belong to.

How the values were obtained:
Test in all cases: ITC
PER2 1132-1252 = PER2 1132-1252 (UniProt O54943)
[1] = target: hRbBP5 (Isoform 2) (human)
PER1 1013-1291 = PER1 1013-1291 (UniProt O35973)
Chain of UniProt O35973 (O35973 1013-1291): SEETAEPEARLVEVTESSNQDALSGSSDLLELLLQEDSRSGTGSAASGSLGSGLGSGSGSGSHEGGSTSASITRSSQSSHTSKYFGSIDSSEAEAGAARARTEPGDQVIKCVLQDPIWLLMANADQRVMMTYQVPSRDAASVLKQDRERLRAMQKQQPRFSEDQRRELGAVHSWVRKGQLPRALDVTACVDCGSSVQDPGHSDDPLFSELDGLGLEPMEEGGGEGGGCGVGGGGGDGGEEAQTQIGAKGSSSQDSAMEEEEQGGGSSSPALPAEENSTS

Chain of UniProt O54943 (O54943 1132-1252): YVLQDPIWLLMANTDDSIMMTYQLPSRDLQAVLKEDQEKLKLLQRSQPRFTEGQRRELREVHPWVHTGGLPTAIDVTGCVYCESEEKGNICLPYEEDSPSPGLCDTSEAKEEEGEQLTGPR

Kd (PER2 1132-1252): 50 µM
Substance: WDR5 23-334 (from UniProt P61964 23-334) (domain or fragment; other documents disagree on this pair)

Kd [1]: 71 µM
Substance: WDR5 23-334 N225A (from UniProt P61964 23-334) (domain or fragment)

Kd (PER1 1013-1291): 7 µM
Substance: WDR5 23-334 N225A (from UniProt P61964 23-334) (domain or fragment; other documents disagree on this pair)
